Source: US20140329320A1 (OBSCHESTVO S OGRANICHENNOI OTVETSTVENNOSTYU TEKHNOPHARMA, published 2014)

Molecular target: T1, chicken ovalbumin protein (chicken, UniProt P01012 2-386)
T1 construct: Immobilized in wells as negative control of the MIF assay; also called nonspecific protein; negative control
T1 sequence: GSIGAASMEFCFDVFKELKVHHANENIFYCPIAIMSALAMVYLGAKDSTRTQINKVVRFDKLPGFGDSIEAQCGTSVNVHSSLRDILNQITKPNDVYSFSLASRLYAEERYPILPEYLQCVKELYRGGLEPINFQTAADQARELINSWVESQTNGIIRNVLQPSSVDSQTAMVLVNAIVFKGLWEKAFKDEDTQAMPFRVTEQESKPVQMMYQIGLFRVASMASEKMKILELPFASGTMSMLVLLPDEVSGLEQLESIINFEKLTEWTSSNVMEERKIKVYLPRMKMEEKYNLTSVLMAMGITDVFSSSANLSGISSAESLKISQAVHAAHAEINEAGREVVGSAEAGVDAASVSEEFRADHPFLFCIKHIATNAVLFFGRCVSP
Assay: microimmunofluorescence (MIF) on immobilized antigen, anti-HA and FITC secondary detection

B1: aCt2 nanoantibody (VHH)
VHH: QVQLVESGGGSVQAGGSLRLHCASSGYVEARILMGWFRQAPGKEREGVAAIYIGDGTTDYGDSVKGRFTVSQDGAKNAIYLHMYDVKPEDAATYYCAAGIMPWYRTWSGRLNVGDFDSWGQGTQVTVSS
notes: also called single domain nanoantibody aCt2
binding result: no binding (tested: 10 µ/ml)

B2: aCt1 nanoantibody (VHH)
VHH: QVQLVESGGGSVQAGGSLRLSCTTSHYVASNSCMAWFRQAPGKKREGVASISRRADITFYADSVKERFVISRDNSERTLYLQMNSLKPEDTAMYYCAADLSYCGLTEEGYNHWGQGTQVTVSS
notes: also called single domain nanoantibody aCt1
binding result: no binding (tested: 10 µ/ml)
